Measured values reported in US20050124678 (Paratek Pharmaceuticals, Inc., published 2005).

Columns and labels:
MarA = biological target: T1, MarA (Escherichia coli, UniProt P0ACH5 P0ACH5:1-127)
T1 sequence: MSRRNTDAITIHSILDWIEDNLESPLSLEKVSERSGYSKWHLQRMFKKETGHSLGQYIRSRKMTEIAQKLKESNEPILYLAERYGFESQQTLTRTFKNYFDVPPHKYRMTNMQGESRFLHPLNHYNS

SoxS = SoxS (Escherichia coli, UniProt P0A9E2 P0A9E2:1-107)
Rob = Rob (Escherichia coli, UniProt P0ACI0 SEQ:1-289)

Measured: binding result

Chain of Rob (P0ACI0 whole entry): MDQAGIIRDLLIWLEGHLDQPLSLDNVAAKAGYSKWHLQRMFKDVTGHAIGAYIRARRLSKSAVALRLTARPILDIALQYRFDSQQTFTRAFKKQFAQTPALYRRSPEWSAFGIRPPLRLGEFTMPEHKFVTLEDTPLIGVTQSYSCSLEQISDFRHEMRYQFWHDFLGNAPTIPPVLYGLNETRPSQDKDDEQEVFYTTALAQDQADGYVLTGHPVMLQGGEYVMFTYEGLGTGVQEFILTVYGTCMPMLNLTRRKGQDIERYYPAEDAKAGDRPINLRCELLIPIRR
Chain of SoxS (P0A9E2 whole entry, one chain of several): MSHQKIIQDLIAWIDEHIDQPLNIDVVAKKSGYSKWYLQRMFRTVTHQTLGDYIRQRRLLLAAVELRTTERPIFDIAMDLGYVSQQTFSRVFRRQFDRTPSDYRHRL

B1: biotinylated target DNA (SEQ ID NO. 5) (dsDNA)
DNA 1: CCGATTTAGCAAAACGTGGCATCGGTC
DNA 2: GACCGATGCCACGTTTTGCTAAATCGG
binds: MarA | SoxS | Rob
